According to article PMC6001950:

Molecular target: human S100A9 protein (human) (UniProt P06702)
Test: other fluorescence titration; intrinsic tryptophan fluorescence of 2 uM S100A9; S100A12 added at 0.4-7 uM; excitation 295 nm, emission read at 345 nm; one binding site model

Kd: 1.3 µM
B1: human S100A12 protein (natural protein)
chain: MTKLEEHLEGIVNIFHQYSVRKGHFDTLSKGELKQLLTKELANTIKNIKDKAVIDEIFQGLDANQDEQVDFQEFISLVAIALKAAHYHTHKE
